The target in the assay is T1, 重组人SIRPα-his融合蛋白 (Acro Biosystems SIA-H5225) (human, UniProt P78324 31-370).
T1 construct: Bought reagent; also called 人SIRPα重组蛋白; not shown: his tag
Put plainly: indirect ELISA screen of hybridoma supernatants, SIRPα-his coated. On the technique in general: ELISA stands for enzyme-linked immunosorbent assay.

Experimental findings from patent CN110734897A (ZHEJIANG BLUE SHIELD PHARMA CO LTD, dated 2020) are described below.

T1 sequence (P78324 31-370 limits assumed): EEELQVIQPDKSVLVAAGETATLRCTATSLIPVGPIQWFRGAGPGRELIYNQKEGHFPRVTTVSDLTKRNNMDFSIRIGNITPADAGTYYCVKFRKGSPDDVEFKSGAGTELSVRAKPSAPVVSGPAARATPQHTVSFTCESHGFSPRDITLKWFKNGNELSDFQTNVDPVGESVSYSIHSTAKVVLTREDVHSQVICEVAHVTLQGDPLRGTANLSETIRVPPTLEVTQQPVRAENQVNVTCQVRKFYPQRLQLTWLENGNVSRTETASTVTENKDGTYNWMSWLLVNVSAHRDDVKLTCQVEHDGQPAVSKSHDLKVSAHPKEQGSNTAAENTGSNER

B1: 杂交瘤细胞株12G6产生的抗人SIRPα单克隆抗体 (antibody, IgG2b, V domains shown)
VH: QIQLVQSGPELKKPGETVKISCKASGYTFTNYGMHWVKQAPGKDLKWMGWINTYTGEPTNADDFKGRFAFSLETSDRTAFLQINNLKNEDTATYFCARGHHYGNYAWFAYWGQGTLVTVSA
VL: DIVMTQSHKFMSTSVGDRVSITCKASQDVSLAVAWYQQKPGQSPKVLIYWASTRHTGVPDRFAGSGSGTDYTLTISSVQAEDLALYYCQQHYSTPWTFGGGTKLEIN
notes: also called 纯化的抗人SIRPα单克隆抗体
For B1, the binding result is listed as “binds”.
